# Data: patent publication US20190376053A1 (BOARD OF TRUSTEES OF THE UNIVERSITY OF ARKANSAS, published 2019)
# B1: tandem collagen-binding domain (s3a-s3b) derived from Clostridium histolyticum class I collagenase ColG (other)
# chain: PITKEMEPNDDIKEANGPIVEGVTVKGDLNGSDDADTFYFDVKEDGDVTIELPYSGSSNFTWLVYKEGDDQNHIASGIDKNNSKVGTFKSTKGRHYVFIYKHDSASNISYSLNIKGLGNEKLKEKENNDSSDKATVIPNFNTTMQGSLLGDDSRDYYSFEVKEEGEVNIELDKKDEFGVTWTLHPESNINDRITYGQVDGNKVSNKVKLRPGKYYLLVYKYSGSGNYELRVNK
# B2: collagen-binding domain s3b derived from Clostridium histolyticum class I collagenase ColG (other)
# chain: GNEKLKEKENNDSSDKATVIPNFNTTMQGSLLGDDSRDYYSFEVKEEGEVNIELDKKDEFGVTWTLHPESNINDRITYGQVDGNKVSNKVKLRPGKYYLLVYKYSGSGNYELRVNK
# notes: domain: s3b; also called ColGS3b; CBD (s3b)
# How the values were obtained:
# [1] = biological target: rat collagen (collagen type I) (rat, UniProt P02454 152-1207; P02466 86-1125); assay: cell-based or functional assay
# Sequence of rat collagen (collagen type I) (P02454 152-1207 limits assumed, chain 1 of 2): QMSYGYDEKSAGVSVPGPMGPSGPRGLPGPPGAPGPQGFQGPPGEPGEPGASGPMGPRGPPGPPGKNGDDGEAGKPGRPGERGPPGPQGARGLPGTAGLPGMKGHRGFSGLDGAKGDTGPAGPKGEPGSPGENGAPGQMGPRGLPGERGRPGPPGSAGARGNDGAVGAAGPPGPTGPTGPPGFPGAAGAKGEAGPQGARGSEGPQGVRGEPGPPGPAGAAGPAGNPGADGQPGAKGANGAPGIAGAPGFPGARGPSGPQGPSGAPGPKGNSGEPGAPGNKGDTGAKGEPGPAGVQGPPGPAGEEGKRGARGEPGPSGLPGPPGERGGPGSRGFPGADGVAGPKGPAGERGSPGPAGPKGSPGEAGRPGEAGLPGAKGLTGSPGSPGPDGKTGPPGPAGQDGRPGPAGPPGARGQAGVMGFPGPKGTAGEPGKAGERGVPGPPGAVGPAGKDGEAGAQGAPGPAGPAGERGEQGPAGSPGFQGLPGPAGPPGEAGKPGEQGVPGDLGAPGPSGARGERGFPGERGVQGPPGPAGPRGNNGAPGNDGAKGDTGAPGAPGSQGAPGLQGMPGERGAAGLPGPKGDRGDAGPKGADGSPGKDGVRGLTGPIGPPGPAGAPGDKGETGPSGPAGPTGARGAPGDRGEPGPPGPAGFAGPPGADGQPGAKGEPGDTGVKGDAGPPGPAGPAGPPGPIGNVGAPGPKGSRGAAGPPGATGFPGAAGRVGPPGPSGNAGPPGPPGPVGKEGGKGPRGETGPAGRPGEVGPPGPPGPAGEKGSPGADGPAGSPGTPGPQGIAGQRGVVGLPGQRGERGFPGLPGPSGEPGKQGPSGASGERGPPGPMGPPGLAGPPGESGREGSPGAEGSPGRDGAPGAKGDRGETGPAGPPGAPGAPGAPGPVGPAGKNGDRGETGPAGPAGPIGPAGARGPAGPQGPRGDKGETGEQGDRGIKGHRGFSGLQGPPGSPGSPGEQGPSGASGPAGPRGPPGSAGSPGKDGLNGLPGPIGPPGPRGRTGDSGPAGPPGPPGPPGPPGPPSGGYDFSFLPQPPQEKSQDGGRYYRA
# Sequence of rat collagen (collagen type I) (P02466 86-1125 limits assumed, chain 2 of 2): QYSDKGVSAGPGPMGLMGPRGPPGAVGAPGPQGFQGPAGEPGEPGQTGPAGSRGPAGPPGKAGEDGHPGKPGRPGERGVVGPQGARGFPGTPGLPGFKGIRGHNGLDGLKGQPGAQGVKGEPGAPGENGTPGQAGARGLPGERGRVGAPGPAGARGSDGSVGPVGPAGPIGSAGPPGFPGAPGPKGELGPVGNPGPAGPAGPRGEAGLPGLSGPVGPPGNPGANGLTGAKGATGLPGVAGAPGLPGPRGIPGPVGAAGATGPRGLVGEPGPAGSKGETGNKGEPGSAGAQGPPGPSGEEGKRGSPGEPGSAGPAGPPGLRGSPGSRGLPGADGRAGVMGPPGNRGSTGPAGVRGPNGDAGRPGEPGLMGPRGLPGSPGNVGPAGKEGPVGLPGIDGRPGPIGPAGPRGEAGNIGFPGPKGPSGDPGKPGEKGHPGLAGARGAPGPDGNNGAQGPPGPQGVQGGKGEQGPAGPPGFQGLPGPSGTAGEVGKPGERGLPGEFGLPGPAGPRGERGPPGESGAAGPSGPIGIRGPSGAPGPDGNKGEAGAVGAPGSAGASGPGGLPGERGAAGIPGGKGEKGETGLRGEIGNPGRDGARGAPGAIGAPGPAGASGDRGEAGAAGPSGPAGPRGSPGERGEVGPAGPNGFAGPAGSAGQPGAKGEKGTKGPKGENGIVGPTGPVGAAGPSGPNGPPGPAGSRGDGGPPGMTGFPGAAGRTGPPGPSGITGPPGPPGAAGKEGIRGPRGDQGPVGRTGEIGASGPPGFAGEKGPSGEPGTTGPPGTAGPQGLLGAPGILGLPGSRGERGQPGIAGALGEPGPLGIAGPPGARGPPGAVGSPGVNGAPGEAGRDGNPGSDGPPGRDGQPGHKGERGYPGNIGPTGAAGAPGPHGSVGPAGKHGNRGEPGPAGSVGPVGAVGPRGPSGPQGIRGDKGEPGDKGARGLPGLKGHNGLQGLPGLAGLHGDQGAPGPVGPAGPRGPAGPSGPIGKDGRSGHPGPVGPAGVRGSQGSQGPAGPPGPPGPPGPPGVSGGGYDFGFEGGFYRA
# [2] = biological target: T1, collagen fibril (porcine skin fiber, Nippi, Inc) (porcine); assay: collagen fibril binding assay (spin column, SDS-PAGE of the unbound protein, Scatchard plot)
# T1 construct: also called collagen fiber; insoluble collagen fibril
Binder,"collagen fibril thickness against the collagen control, 5:1 ratio [1]","fibril growth, absorption, higher ratios of tandem CBD [1]","fibril growth, absorption, lower ratios of CBD [1]",Kd [2]
B1,2 % less,0.005,0.0217,
B2,,,,~100 µM
